Results reported in patent publication US20240254190A1 (published 2024).
Values belong to the binder of their own block, whether it stands above or below them.

Assays:
Test in all cases: cytokine release
[1] = molecular target: T1, p53 wild type peptide on HLA-DRA*01:01 / HLA-DRB1*01:01 (human)
T1 peptide: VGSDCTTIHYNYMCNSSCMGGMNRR

[2] = molecular target: T2, p53 C135Y peptide on HLA-DRA*01:01 / HLA-DRB1*07:01 (human)
T2 peptide: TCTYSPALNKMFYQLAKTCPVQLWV

[3] = molecular target: T3, p53 C135Y peptide on HLA-DQA1*02:01 / HLA-DQB1*02:01 (human)
T3 peptide: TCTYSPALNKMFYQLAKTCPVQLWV

[4] = molecular target: T4, p53 C135Y peptide on HLA-DQA1*02:01 / HLA-DQB1*02:02 (human)
T4 peptide: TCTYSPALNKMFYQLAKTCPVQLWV

[5] = molecular target: T5, p53 C135Y peptide on HLA-DQA1*02:01 / HLA-DQB1*05:01 (human)
T5 peptide: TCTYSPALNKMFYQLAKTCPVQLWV

[6] = molecular target: T6, p53 C135Y peptide on HLA-DRA*01:01 / HLA-DRB3*01:01 (human)
T6 peptide: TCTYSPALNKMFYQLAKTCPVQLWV

[7] = molecular target: T7, p53 C135Y peptide on HLA-DQA*01:01 / HLA-DRB4*01:01 (human)
T7 peptide: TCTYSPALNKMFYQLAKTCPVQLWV

[8] = molecular target: T8, p53 wild type peptide on HLA-DRA*01:01 / HLA-DRB1*07:01 (human)
T8 peptide: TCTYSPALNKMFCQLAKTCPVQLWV

[9] = molecular target: T9, p53 C135Y peptide on HLA-DPA1*01:03 / HLA-DPB1*02:01 (human)
T9 peptide: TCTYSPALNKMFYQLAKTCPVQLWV

[10] = molecular target: T10, p53 C135Y peptide on HLA-DPA1*01:03 / HLA-DPB1*11:01 (human)
T10 peptide: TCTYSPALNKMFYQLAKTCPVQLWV

[11] = molecular target: T11, p53 C135Y peptide on HLA-DPA1*02:01 / HLA-DPB1*02:01 (human)
T11 peptide: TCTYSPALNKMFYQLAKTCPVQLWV

[12] = molecular target: T12, p53 C135Y peptide on HLA-DPA1*02:01 / HLA-DPB1*11:01 (human)
T12 peptide: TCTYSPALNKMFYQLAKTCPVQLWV

[13] = molecular target: T13, p53 C135Y peptide on HLA-DQA1*01:01 / HLA-DQB1*02:01 (human)
T13 peptide: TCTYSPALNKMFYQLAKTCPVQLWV

[14] = molecular target: T14, p53 C135Y peptide on HLA-DQA1*01:01 / HLA-DQB1*02:02 (human)
T14 peptide: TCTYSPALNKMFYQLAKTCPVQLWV

[15] = molecular target: T15, p53 C135Y peptide on HLA-DQA1*01:01 / HLA-DQB1*05:01 (human)
T15 peptide: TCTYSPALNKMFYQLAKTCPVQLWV

[16] = molecular target: T16, p53 wild type peptide on HLA-A*02:01 (human)
T16 peptide: HMTEVVRRC

[17] = molecular target: T17, p53 R175H peptide on HLA-A*23:01 (human)
T17 peptide: HMTEVVRHC

[18] = molecular target: T18, p53 R175H peptide on HLA-B*08:01 (human)
T18 peptide: HMTEVVRHC

[19] = molecular target: T19, p53 R175H peptide on HLA-B*44:03 (human)
T19 peptide: HMTEVVRHC

[20] = molecular target: T20, p53 R175H peptide on HLA-C*04:01 (human)
T20 peptide: HMTEVVRHC

[21] = molecular target: T21, p53 R175H peptide on HLA-C*07:01 (human)
T21 peptide: HMTEVVRHC

B1: 4304 TCR-4 (TCR, V domains shown)
Valpha: QKEVEQNSGPLSVPEGAIASLNCTYSDRGSQSFFWYRQYSGKSPELIMFIYSNGDKEDGRFTAQLNKASQYVSLLIRDSQPSDSATYLCAVRGGNTGFQKLVFGTGTRLLVSP
Vbeta: AVISQKPSRDICQRGTSLTIQCQVDSQVTMMFWYRQQPGQSLTLIATANQGSEATYESGFVIDKFPISRPNLTFSTLTVSNMSPEDSSIYLCSVRSEDTQYFGPGTRLTVL
binding result [1]: no recognition

B3: 4141 IVS TCR (TCR, V domains shown)
Valpha: QTVTQSQPEMSVQEAETVTLSCTYDTSENNYYLFWYKQPPSRQMILVIRQEAYKQQNATENRFSVNFQKAAKSFSLKISDSQLGDTAMYFCAFMAYMEYGNKLVFGAGTILRVKS
Vbeta: EPEVTQTPSHQVTQMGQEVILRCVPISNHLYFYWYRQILGQKVEFLVSFYNNEISEKSEIFDDQFSVERPDGSNFTLKIRSTKLEDSAMYFCACKGITDTQYFGPGTRLTVL
binding result [16]: no recognition
binding result [17]: no recognition
binding result [18]: no recognition
binding result [19]: no recognition
binding result [20]: no recognition
binding result [21]: no recognition

B4: 4304 TCR-2 (TCR, V domains shown)
Valpha: QSVSQHNHHVILSEAASLELGCNYSYGGTVNLFWYVQYPGQHLQLLLKYFSGDPLVKGIKGFEAEFIKSKFSFNLRKPSVQWSDTAEYFCAVTFMDTGRRALTFGSGTRLQVQP
Vbeta: GVSQSPSNKVTEKGKDVELRCDPISGHTALYWYRQSLGQGLEFLIYFQGNSAPDKSGLPSDRFSAERTGGSVSTLTIQRTQQEDSAVYLCASSPRGGDYEQYFGPGTRLTVT
binding result [1]: no recognition

Next, values leading:

binding result [2]: recognises
binding result [3]: no recognition
binding result [4]: no recognition
binding result [5]: no recognition
binding result [6]: no recognition
binding result [7]: no recognition
binding result [8]: no recognition
binding result [9]: no recognition
binding result [10]: no recognition
binding result [11]: no recognition
binding result [12]: no recognition
binding result [13]: no recognition
binding result [14]: no recognition
binding result [15]: no recognition
B2: 4316-D TCR (TCR, V domains shown)
Valpha: QQVMQIPQYQHVQEGEDFTTYCNSSTTLSNIQWYKQRPGGHPVFLIQLVKSGEVKKQKRLTFQFGEAKKNSSLHITATQTTDVGTYFCAESYSGGYQKVTFGIGTKLQVIP
Vbeta: EPEVTQTPSHQVTQMGQEVILRCVPISNHLYFYWYRQILGQKVEFLVSFYNNEISEKSEIFDDQFSVERPDGSNFTLKIRSTKLEDSAMYFCASSSFSNEQFFGPGTRLTVL

binding result [1]: no recognition
B5: 4304 TCR-K (TCR, V domains shown)
Valpha: KDQVFQPSTVASSEGAVVEIFCNHSVSNAYNFFWYLHFPGCAPRLLVKGSKPSQQGRYNMTYERFSSSLLILQVREADAAVYYCAVSGYQLIWGAGTKLIIKP
Vbeta: GVAQSPRYKIIEKRQSVAFWCNPISGHATLYWYQQILGQGPKLLIQFQNNGVVDDSQLPKDRFSAERLKGVDSTLKIQPAKLEDSAVYLCASSLDRRGGRETQYFGPGTRLLVL
